Source: PMC7217052, “Rapid Biophysical Characterization and NMR Spectroscopy Structural Analysis of Small Proteins from Bacteria and Archaea” (Chembiochem, 2020)

Target: the molecule itself
Experiment: solution-state NMR structure; 5 mM protein, 50 mM sodium phosphate buffer pH 7.5, 100 mM NaCl, 298 K; best 20 structures shown as a symmetrical dimer

B1: SP-22 small protein from Haloferax volcanii (natural protein)
chain: MNKAHFEVFVDAADKYRWRLVHDNGNILADSGEGYASKQKAKQGIESVKRNAPDADVIEA
notes: source: heterologously expressed in E. coli, purified (purity above 95 %)
stoichiometry N: 2
